Tested on: peptide library, one residue held at a place counted from the S/T acceptor
Assay: relative phosphorylation of the sub-library (ratio to the mean residue at this position); higher = residue favoured
Details: human
How it was run: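 Relative sub-library phosphorylation, a ratio to the mean residue at that position, was obtained by phosphorimaging and densitometry of spots on streptavidin membranes. Before capture, purified recombinant kinases were incubated for 90 min under kinase-specific conditions with 50 μM biotinylated degenerate peptide sub-libraries and 50 μM ATP spiked with γ-32P-ATP. Each sub-library fixed one residue at one position around a central Ser/Thr.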

Chain of ATM, construct: Full length (Q13315 whole entry, looked up): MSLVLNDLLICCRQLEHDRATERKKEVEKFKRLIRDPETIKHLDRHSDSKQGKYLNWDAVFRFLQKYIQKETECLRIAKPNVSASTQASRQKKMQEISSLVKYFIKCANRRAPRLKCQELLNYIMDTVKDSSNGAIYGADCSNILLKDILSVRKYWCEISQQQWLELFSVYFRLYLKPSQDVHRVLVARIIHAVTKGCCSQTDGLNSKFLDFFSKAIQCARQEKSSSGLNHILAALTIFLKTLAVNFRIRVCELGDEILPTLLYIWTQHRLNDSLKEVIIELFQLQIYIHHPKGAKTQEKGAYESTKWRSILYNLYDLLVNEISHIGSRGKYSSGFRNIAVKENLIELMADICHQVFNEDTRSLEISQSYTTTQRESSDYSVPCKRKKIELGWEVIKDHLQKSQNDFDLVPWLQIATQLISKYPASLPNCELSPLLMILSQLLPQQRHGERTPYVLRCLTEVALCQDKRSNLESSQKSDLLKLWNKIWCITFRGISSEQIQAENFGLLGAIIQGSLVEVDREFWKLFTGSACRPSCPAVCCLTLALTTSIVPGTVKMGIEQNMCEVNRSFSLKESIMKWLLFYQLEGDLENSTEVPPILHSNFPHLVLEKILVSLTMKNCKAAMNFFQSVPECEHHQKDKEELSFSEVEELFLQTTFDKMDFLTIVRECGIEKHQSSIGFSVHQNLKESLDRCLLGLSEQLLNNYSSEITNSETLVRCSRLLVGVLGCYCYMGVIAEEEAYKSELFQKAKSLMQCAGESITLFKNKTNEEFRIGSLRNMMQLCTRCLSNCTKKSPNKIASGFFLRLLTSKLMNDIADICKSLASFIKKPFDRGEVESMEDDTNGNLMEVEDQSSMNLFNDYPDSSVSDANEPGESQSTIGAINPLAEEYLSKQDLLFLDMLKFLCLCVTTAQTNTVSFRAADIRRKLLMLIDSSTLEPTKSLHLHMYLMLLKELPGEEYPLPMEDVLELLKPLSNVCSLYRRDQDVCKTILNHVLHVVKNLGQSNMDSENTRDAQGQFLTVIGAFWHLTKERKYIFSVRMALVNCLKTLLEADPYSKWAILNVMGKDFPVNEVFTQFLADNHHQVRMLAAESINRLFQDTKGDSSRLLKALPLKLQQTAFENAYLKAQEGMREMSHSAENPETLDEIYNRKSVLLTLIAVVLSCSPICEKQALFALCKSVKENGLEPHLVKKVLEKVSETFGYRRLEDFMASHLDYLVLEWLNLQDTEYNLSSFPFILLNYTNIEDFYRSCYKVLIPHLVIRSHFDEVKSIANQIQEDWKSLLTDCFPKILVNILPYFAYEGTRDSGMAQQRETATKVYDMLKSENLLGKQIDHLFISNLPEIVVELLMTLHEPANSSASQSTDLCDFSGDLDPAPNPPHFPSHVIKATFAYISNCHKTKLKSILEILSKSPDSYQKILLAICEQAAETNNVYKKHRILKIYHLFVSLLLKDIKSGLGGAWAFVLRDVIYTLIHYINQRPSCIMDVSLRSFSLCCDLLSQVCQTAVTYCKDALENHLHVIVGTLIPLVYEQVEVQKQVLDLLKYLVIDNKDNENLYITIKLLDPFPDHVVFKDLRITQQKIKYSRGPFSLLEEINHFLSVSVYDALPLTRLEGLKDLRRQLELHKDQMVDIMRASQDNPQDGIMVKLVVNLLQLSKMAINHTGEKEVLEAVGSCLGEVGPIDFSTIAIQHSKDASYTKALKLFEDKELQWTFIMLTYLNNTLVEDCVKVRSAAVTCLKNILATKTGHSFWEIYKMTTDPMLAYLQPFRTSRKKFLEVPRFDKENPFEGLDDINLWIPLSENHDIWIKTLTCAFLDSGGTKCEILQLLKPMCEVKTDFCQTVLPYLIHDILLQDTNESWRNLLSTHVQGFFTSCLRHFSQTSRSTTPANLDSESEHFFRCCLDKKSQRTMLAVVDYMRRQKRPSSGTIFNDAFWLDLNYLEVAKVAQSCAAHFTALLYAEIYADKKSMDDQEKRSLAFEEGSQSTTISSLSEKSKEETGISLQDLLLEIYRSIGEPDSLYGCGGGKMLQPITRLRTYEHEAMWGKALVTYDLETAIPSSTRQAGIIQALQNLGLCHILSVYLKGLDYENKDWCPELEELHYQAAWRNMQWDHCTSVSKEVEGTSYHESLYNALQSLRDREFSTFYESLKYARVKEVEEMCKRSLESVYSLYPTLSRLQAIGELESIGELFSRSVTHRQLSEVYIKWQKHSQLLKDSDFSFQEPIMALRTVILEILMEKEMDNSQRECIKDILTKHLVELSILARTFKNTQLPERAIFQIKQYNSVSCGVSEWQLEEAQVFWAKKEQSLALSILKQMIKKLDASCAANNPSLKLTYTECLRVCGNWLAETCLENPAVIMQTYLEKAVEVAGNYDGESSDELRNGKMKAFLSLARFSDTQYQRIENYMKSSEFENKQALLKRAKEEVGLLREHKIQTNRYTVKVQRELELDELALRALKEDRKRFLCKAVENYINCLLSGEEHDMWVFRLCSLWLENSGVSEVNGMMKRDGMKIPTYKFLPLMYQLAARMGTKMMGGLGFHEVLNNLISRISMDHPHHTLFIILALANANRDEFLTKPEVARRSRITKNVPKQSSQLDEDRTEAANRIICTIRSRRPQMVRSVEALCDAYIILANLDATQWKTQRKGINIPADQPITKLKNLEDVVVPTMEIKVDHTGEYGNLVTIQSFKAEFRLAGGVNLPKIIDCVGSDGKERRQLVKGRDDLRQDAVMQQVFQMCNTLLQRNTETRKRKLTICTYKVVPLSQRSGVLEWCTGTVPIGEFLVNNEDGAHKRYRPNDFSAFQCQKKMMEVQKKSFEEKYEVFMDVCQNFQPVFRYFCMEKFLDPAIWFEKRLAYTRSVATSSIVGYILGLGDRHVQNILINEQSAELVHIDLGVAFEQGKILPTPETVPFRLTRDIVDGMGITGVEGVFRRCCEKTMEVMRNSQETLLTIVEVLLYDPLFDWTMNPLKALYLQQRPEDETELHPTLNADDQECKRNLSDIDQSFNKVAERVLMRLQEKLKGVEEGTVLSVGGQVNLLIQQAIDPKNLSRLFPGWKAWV
Chain of BMPR1B, construct: aa149-end (O00238 149-502, looked up): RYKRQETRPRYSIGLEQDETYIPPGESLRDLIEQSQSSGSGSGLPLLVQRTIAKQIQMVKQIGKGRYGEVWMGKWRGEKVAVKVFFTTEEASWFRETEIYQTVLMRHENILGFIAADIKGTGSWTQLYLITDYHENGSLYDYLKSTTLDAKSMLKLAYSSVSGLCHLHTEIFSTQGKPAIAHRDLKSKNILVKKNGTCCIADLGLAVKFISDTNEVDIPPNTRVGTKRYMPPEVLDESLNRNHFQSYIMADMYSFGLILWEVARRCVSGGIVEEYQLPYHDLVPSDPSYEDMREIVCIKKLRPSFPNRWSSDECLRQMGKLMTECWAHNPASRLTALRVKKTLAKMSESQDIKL

ATM, construct: Full length (from UniProt Q13315)
relative phosphorylation
Details	at +1	at +2	at +3	at +4	at -1	at -2	at -3	at -4	at -5
A fixed	0.429	0.858	0.748	0.776	0.759	1.18	0.922	0.959	1.1
D fixed	0.42	2.02	1.28	1.27	2.27	1.56	1.26	1.3	1.11
E fixed	0.85	2.16	1.45	1.45	1.62	1.77	1.52	1.5	1.08
F fixed	0.701	0.658	1.5	1.23	1.1	0.868	1.14	1.2	1.4
G fixed	0.361	0.756	0.691	0.922	1.06	0.93	0.848	0.995	0.987
H fixed	0.38	0.918	0.67	0.84	1.09	0.936	0.936	0.912	0.879
I fixed	0.594	0.872	1.03	1.08	0.405	0.685	0.814	0.906	1.06
K fixed	0.384	0.649	0.5	0.499	0.376	0.696	0.681	0.721	0.662
L fixed	0.621	0.77	1.59	1.11	1.56	0.692	0.867	0.96	0.987
M fixed	0.672	0.787	1.26	1.25	1.05	0.85	1.18	0.995	0.971
N fixed	0.748	1.21	0.742	0.791	1.83	1.24	0.842	0.789	0.859
P fixed	0.448	1.1	0.742	0.779	0.412	0.906	0.643	0.819	0.784
Q fixed	8.34	1.1	0.989	0.787	0.731	1.28	0.792	0.733	0.617
R fixed	0.648	0.839	0.545	0.577	0.518	1.13	1.66	0.865	0.894
V fixed	0.521	1.01	0.875	0.873	0.387	0.716	0.671	0.818	1.1
W fixed	0.421	0.514	1.31	1.51	0.525	0.736	1.06	1.27	1.26
Y fixed	0.466	0.798	1.08	1.25	1.31	0.823	1.17	1.25	1.25
pThr fixed	0.577	1.47	0.933	1.49	0.748	1.37	1.15	1.21	0.84
pTyr fixed	0.468	1.85	1.26	2.74	3.86	1.68	1.7	1.23	1.05

BCKDK, construct: Full length (from UniProt O14874)
relative phosphorylation
Details	at +1	at +2	at +3	at +4	at -1	at -2	at -3	at -4	at -5
A fixed	0.707	0.962	0.785	0.937	0.696	0.951	0.894	0.988	1.02
D fixed	0.393	1.11	2.51	0.922	1.32	0.571	0.616	0.717	0.856
E fixed	0.404	0.981	1.16	0.957	0.351	0.544	0.654	0.821	0.72
F fixed	0.915	0.909	1.11	1.13	0.742	1.19	1.26	1.14	1.18
G fixed	0.489	1.36	1.11	0.99	1.3	1.72	1.09	1.18	1.14
H fixed	0.698	1.31	0.929	0.973	1.69	1.33	1.17	1.14	1.26
I fixed	1.59	0.502	0.71	0.645	0.565	0.913	0.854	0.871	0.794
K fixed	0.483	0.704	0.538	0.577	0.425	0.901	0.8	0.886	1.02
L fixed	2.58	0.628	1.03	0.656	0.607	0.855	0.877	0.964	0.858
M fixed	2.1	0.966	0.889	0.781	0.577	1.05	1.01	1.1	0.962
N fixed	0.513	1.16	0.754	0.761	4.15	0.917	0.932	0.786	0.944
P fixed	0.404	0.61	0.831	1.08	0.432	0.866	0.976	1.05	0.819
Q fixed	0.69	1.17	0.749	0.724	0.619	0.867	0.804	0.75	0.678
R fixed	0.671	1.43	0.834	0.859	0.562	0.893	1.02	0.937	1.01
V fixed	1.84	0.553	0.641	0.709	0.514	0.699	0.734	0.791	0.879
W fixed	0.688	1.35	1.53	2.53	1.06	1.51	1.74	1.64	1.73
Y fixed	1.84	1.28	0.896	1.76	1.39	1.23	1.57	1.24	1.13
pThr fixed	0.535	0.616	0.681	0.682	0.541	0.847	0.904	0.931	0.896
pTyr fixed	0.502	0.681	0.53	1.46	0.581	0.994	1.31	1.14	0.896

BMPR1B, construct: aa149-end (from UniProt O00238)
relative phosphorylation
Details	at +1	at +2	at +3	at +4	at -1	at -2	at -3	at -4	at -5
A fixed	1.07	1.39	1.01	0.984	0.997	0.924	1.21	1.09	1.34
D fixed	1.83	1.33	1.58	0.977	1.64	2.17	2.03	2.24	1.67
E fixed	5.67	1.49	1.56	1.15	1.77	6.66	2.3	1.75	1.49
F fixed	0.422	0.61	0.873	1	0.771	0.382	0.596	0.674	0.73
G fixed	0.798	1.57	0.953	1.03	0.637	0.725	1.14	1.26	1.2
H fixed	0.552	0.988	0.857	0.895	0.919	0.493	0.923	0.855	0.972
I fixed	0.631	0.606	0.753	0.984	0.833	0.496	0.586	0.704	0.681
K fixed	0.404	1.04	0.655	1.14	0.73	0.386	0.69	0.818	0.938
L fixed	0.503	0.727	0.935	0.888	1.1	0.553	0.663	0.733	0.766
M fixed	0.62	0.757	0.869	0.949	1.29	0.497	0.773	0.86	0.798
N fixed	0.743	0.911	0.961	0.926	0.901	0.679	1.08	0.92	1
P fixed	0.344	1.38	1.13	1.21	0.627	0.499	0.977	0.998	1.09
Q fixed	0.676	0.809	0.945	0.981	0.965	0.702	1.07	1.01	0.839
R fixed	0.48	0.842	0.891	0.924	0.791	0.439	0.803	0.801	0.869
V fixed	1.2	0.664	0.97	0.908	1.02	0.581	0.697	0.769	0.921
W fixed	0.519	0.897	1.01	1.02	0.844	0.397	0.659	0.744	0.892
Y fixed	0.528	0.985	1.04	1.04	1.17	0.415	0.795	0.764	0.799
pThr fixed	6.15	2.16	1.11	1.13	1.03	2.23	2.34	1.67	1.35
pTyr fixed	1.18	0.924	1.3	0.928	1.8	0.801	1.81	1.51	1.41

— the supplement of paper PMC9876800
